Columns and labels:
[1] = target: FLAG-tagged tuberin (UniProt P49815)
[2] = tested on: MBP-AMPKa (1-312) bacterial fusion protein
[3] = tested on: SAMS peptide

Sequence of FLAG-tagged tuberin (P49815 whole entry, the tested form may be a part): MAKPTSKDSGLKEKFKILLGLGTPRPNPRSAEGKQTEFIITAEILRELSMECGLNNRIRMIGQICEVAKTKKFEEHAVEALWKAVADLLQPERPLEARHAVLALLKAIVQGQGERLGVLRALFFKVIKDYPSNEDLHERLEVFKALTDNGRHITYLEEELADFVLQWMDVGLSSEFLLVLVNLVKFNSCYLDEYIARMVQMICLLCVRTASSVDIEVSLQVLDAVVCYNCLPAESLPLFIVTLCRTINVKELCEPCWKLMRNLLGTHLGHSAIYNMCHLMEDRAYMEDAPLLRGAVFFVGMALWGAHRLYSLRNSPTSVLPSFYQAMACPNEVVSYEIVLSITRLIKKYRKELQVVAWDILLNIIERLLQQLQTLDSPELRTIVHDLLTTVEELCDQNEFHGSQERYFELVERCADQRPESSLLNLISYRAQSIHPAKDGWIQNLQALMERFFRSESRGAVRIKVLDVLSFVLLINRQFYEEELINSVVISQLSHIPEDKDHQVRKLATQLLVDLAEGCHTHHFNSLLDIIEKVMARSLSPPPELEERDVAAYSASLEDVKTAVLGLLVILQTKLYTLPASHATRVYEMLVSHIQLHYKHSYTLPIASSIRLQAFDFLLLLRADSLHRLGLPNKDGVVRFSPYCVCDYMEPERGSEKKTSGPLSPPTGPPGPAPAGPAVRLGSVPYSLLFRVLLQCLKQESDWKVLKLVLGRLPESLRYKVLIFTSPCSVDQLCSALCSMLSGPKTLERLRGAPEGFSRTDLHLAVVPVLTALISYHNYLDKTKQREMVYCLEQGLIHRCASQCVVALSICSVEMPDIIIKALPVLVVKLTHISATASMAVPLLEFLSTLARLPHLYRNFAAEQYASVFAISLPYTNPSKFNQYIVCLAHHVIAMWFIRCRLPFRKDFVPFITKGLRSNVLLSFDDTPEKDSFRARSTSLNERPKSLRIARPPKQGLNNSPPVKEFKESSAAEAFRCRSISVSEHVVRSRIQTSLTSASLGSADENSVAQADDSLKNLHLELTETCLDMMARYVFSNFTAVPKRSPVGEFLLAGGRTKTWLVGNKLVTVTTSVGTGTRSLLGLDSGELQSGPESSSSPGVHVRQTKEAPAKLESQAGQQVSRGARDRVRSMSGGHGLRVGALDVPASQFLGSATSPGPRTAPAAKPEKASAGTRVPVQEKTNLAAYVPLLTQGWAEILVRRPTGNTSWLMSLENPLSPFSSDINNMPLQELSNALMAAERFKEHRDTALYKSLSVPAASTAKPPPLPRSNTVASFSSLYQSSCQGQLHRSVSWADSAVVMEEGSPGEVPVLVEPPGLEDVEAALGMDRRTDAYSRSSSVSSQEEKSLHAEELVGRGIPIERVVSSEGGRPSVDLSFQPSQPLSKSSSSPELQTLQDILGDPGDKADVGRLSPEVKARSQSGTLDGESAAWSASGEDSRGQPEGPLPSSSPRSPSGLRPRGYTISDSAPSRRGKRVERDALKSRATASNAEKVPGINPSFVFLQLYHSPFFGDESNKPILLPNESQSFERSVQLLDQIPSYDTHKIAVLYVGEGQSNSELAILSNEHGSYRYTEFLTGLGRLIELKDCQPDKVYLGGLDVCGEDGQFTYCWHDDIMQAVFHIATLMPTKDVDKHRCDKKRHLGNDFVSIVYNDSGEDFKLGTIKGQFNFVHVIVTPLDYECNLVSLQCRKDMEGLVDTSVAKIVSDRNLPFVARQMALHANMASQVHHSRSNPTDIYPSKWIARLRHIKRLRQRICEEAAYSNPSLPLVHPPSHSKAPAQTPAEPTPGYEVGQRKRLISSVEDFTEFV

Substance: Active recombinant AMPK (Upstate Biotechnology)
- in vitro phosphorylation of tuberin; mobility shift on low percentage SDS-PAGE [1]: when tuberin was stoichiometrically phosphorylated by AMPK, it underwent a mobility shift

Substance: Active recombinant Akt (Upstate Biotechnology)
- in vitro phosphorylation of tuberin; mobility shift on low percentage SDS-PAGE [1]: This mobility shift in tuberin was not observed when tuberin was phosphorylated by active recombinant Akt, even at levels of tuberin phosphorylation comparable to those induced by AMPK

Substance: Kinase-inactive LKB1 (K78I) coexpressed with STRAD, Flag immunoprecipitate
- AMPK kinase activity towards the SAMS peptide after in vitro kinase reaction with LKB1 [2]: Kinase-inactive LKB1 alone or coexpressed with STRAD was unable to activate AMPK

Substance: MBP-AMPKa (1-312) bacterial fusion protein
- in vitro phosphorylation of FLAG-tagged tuberin by recombinant AMPK pre-activated with wild-type LKB1 [1]: AMPK activated by wild-type LKB1 directly phosphorylated tuberin in vitro
- phosphorylation of the SAMS peptide by unphosphorylated MBP-AMPK [3]: bacterial MBP-AMPK is inactive towards the peptide

— patent US20080194019
